Source: article PMC3758794 (Cell biochemistry and biophysics, 2013)

B1: UBE2W-131Δ (truncation following Y131) (domain or fragment, human, UniProt Q96B02 1-131, looked up)
chain: MASMQKRLQKELLALQNDPPPGMTLNEKSVQNSITQWIVDMEGAPGTLYEGEKFQLLFKFSSRYPFDSPQVMFTGENIPVHPHVYSNGHICLSILTEDWSPALSVQSVCLSIISMLSSCKEKRRPPDNSFY

Key:
[1] = target: UBE2W-WT (human) (UniProt Q96B02); experiment: SEC
[2] = target: the molecule itself; experiment: SEC

Row | Molecule | stoichiometry N [1] | stoichiometry N [2]
1 | UBE2W-WT (from UniProt Q96B02 1-151) (enzyme) | 2 | –
2 | B1 | – | 2
